Source: the nanobody polyreactivity screen of Harvey et al. (2022)

Assay: yeast display, Sf9 membrane polyspecificity reagent, FACS + sequencing; frameworks hold sequencing errors
How it was run: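 Nanobodies came from a synthetic yeast display library in Saccharomyces cerevisiae BJ5465, induced with galactose for 36–48 hours and stained for 1 hour at 4 °C with 10% biotinylated, detergent-solubilized Sf9 membrane reagent. Cells were enriched on streptavidin microbeads and then FACS-sorted, with low and high (top ~1%) gates set on anti-HA fluorescence for expression and streptavidin fluorescence for reagent binding. Each polyreactivity label reflects the gate a clone came from. Genes were amplified by colony PCR, sequenced by MiSeq 2 × 250 and filtered by CDR length.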

Sequence | polyreactivity (PSR sort gate)
QVQLVESGGGLVQAGGSLRLSCAASGTIIVWNAMGRYRQARGKERELVASITSGASTNYADSVKGRFTISRDNAKNTVYLQMNSLKPEDTAVYYCNAGPRRTISRSRLRSAPKYDYWGQGTQVTVSS | low polyreactivity
QVQLVESGGGLLQAGGSLRLSCAASVRIFYGYAMGWYRPAPGKERELVAAIDSVGDTYYADSVKGRFTISRDNAKNTVYLQMNSLNPEDTAVYYCAADRTGGIVLSPTDEMDYWGQGTQVTVSS | low polyreactivity
QVQLVESGGGLVQAGGSLRLSCAASGRIFRLYAMGWYRQAPGKERELGAAISSRGGDTYADSVKGRFTISRDNAKNTVYLQMNSLKPEDTAVYYCNDVIYYPYKSGVWYYEYDYWGQGTKVTVSS | low polyreactivity
QVQLVESCGGLVQAGGSLRLSCAASGSIFSGYAMGWYRQAPWKERELVAAITWRAASTYYADSVTGRFTISRDNAMNTVYLQMNSLKPEDTAVYYCAKEGWPKPAFYYCGQGTQVTVSS | low polyreactivity
QVHLVESGGGLVQAGGSLLLSCAASGSIFYFYAMGWYRQAPGKERELVAGITWRGGRTYYADSVKGRFTISRDNAKNTVDLQMIILKPEDTAVYYCAARFWSTYGYDSWGQGTQVTVSS | high polyreactivity
QVHHVDSGGGLVQAGGTLRLSIPASGRTFQYYTMGWYRQPPGKERELVAAIRRGGSTYYADSVKGRFSISRDNAKNTVYLQLNILKPEDTAVYYCADLYAYSLTARGMEYWGQGTQVTVSS | high polyreactivity
QVQLVESGGGLVQAGGSLRLCCAASGNIFAYYAMGWYRQPPAKERELVAGISRRGGNTYYADSVKGRFTISRDNAKNTVYLQMNSLKPEDTAVYYCAAITYSGQRFDYWGQGTQVTVSS | high polyreactivity
QVQLVESGGGLVQAGGSLRLSCAASGRTFWGYPMGWYRQAPGKERELVAAISSGGSTHYADSVKGRFTISRDNAKNTVYLQMNSLKPEDTAVYYCAAAVGYYAFGTYPFDDWPYDYWGQGTQVTVSS | high polyreactivity
QVQLVESGGGLVQAGGSLRLSCAASGFIFRINAMGWYRQAPGKERELVARITSGGSTYYADSVKGRFTISRDNAKNTVYLQMNSLKPEDTAVYYCAARVKYYGSQSRYYWGQVTQVTVSS | high polyreactivity
QVQLVESGGGLDQAGGSLRLSCAASGITFKPYGMGWYRQAPGKERELVADITSGGITYYADSVKGRFTISRDNAKNTVYLQMNSLKPEDTAVYYCATGDLFVFYWGYVVRLYDYWGQGTQVTVSS | low polyreactivity
QVQLVESGGGLVQAGGSLRLSCAASGRIFYYNDMGWYRQAPGKERELVAAITWTDDGTYYADSVKGRFTISRDNAKNTVFLQMNSLKPEDTAVYYCAAESFYGFEYWGQGTQVTVSS | low polyreactivity
QVLLVESGGGLVQAGGSLRLSCAASGRTFGTNGMGWYRQAPGKERELVAVITWTGGSTYYADSVKGRFTITRDNEKNTVYLQMNSLKPEDTAVYYCAAKYSHLGYNYWGQGTQVTVSS | high polyreactivity
QVQLVESGGGLVQAGGSLRLSCAASGSTFSKYAMGWYRPAPGKERELVAAISSRGGSTYYADSVKGRFTISRDNAKNTVYLQMNSLKPEDTAVYYCATYYVYKLYYWGQGTQVTVSS | high polyreactivity
QVQLVESGGGLVQAGGSLRLSCAASGSIFWYNAMGWYRQAPGKERELVAAIRWRGGSTYYADSVKGRFTISRDNAKNTVYLQMNSLKPEDTAVYYCARDRYYRTLGYGYWGQGTQVNVSS | high polyreactivity
QVQLVDSGGGLVQAGGSLRLSCAASGRTFWQYAMGWYRQAPGKERELVAAISRSGGSTYYADSVKGRFTISRDNAQNTVSLQMNSLKPEDTAVYYCAAYYLGYNYDYWGQGTQVTVSS | high polyreactivity
QVQLVESGGGLVQAGGSLRLSCAASVYGMGWYRQAPGKERELVAAISNGGTTYYADSVKGRFTISRDNAKNTVYLQMNSLKPEDTAVYYCAARSWPGGFIYYYWGQGTQVTVSS | low polyreactivity
QVQLVESGGGLVQAGGSLRLSCAASGIIFAYYAMGWYRQAPGKERELVGTNYADSVKGRFTISRDNAKNTVYLQMNSLKPEDTAVYYCAADFLYYSSGGKMDYWGQGTQVTVSS | low polyreactivity
